Measurements: patent KR20220160483A (dated 2022)

What was measured:
[1] = target: T1, 재조합 인간 ASM(acid sphingomyelinase) 단백질 (human, UniProt P17405 62-630, limits assumed); experiment: BLI (Octet QK384), human ASM amine-coupled on AR2G sensor, antibody 0.4, 2, 10 nM
T1 construct: Recombinant protein, bought (R&D systems in the ELISA); also called 인간 ASM 단백질; recombinant human ASM protein
T1 sequence: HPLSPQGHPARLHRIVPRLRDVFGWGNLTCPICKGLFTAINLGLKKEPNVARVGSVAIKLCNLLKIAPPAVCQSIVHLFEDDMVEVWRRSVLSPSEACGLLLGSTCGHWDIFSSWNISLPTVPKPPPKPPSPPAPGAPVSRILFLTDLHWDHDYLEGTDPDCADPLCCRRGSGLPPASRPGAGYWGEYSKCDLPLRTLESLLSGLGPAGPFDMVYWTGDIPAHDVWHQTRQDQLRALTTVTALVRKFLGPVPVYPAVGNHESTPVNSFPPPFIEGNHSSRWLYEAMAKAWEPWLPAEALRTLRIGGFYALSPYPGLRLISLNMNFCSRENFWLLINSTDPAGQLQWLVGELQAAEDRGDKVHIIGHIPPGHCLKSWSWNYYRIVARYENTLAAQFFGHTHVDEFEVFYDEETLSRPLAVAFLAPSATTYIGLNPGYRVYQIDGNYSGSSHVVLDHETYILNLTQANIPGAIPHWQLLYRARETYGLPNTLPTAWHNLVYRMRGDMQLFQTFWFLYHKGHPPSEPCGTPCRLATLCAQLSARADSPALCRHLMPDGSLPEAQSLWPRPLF

[2] = target: T1, 재조합 인간 ASM(acid sphingomyelinase) 단백질; experiment: ELISA, recombinant human ASM coated at 1 ㎍/㎖, anti-mouse IgG-HRP
[3] = target: T2, 재조합 마우스 ASM(acid sphingomyelinase) 단백질 (mouse, UniProt Q04519 45-626, limits assumed); experiment: BLI (Octet QK384), mouse ASM amine-coupled on AR2G sensor, antibody 0.4, 2, 10 nM; poor fit (RMax 0.0185, Full R2 0.5527), text does not count it as binding
T2 construct: Recombinant protein; also called 마우스 ASM 단백질; recombinant mouse ASM protein
T2 sequence: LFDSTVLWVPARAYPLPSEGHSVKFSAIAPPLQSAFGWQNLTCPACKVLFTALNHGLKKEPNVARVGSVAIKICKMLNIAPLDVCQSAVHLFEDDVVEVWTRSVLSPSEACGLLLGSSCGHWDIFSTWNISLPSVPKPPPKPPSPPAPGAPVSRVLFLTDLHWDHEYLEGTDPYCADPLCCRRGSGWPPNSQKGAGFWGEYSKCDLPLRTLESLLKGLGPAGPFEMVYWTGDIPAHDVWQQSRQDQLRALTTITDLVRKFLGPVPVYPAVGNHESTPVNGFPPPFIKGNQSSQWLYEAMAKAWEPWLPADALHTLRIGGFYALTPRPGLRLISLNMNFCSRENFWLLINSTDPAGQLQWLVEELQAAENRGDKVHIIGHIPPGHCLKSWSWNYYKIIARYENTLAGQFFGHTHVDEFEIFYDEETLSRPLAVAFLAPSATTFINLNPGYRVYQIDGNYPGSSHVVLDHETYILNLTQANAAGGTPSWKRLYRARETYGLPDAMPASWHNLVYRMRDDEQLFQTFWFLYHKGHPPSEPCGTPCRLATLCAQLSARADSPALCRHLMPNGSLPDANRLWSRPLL

[4] = target: T2, 재조합 마우스 ASM(acid sphingomyelinase) 단백질; experiment: BLI (Octet QK384), mouse ASM amine-coupled on AR2G sensor, antibody 0.4, 2, 10 nM
[5] = target: T2, 재조합 마우스 ASM(acid sphingomyelinase) 단백질; experiment: BLI (Octet QK384), mouse ASM amine-coupled on AR2G sensor, antibody 0.4, 2, 10 nM; no signal (RMax 0, Full R2 0), text does not count it as binding

B1: #9101 항체 (antibody, mouse IgG1, V domains shown)
VH: EVQLLESGGGLVQPGGSLRLSCAASGFTFSNYAMSWVRQAPGKGLEWVSGIYPNGGNKYYADSVKGRFTISRDNSKNTLYLQMNSLRAEDTAVYYCAKNAYRFDYWGQGTLVTVSS
VL: QSVLTQPPSASGTPGQRVTISCSGSSSNIGNNYVSWYQQLPGTAPKLLIYADSKRPSGVPDRFSGSKSGTSASLAIGGLRSEDEADYYCGSWDYSLNAYVFGGGTKLTVLG
Kd [1]: 1.16 nM
koff [1]: 0.000728 s⁻¹
kon [1]: 626000 M⁻¹ s⁻¹
EC50 [2]: 0.0815 nM
Kd [3]: 0.0425 nM
koff [3]: 0.000159 s⁻¹
kon [3]: 3.76e+06 M⁻¹ s⁻¹

B2: #9102 항체 (antibody, mouse IgG1, V domains shown)
VH: EVQLLESGGGLVQPGGSLRLSCAASGFTFSGYYMSWVRQAPGKGLEWVSLISPGSGSIYYADSVKGRFTISRDNSKNTLYLQMNSLRAEDTAVYYCAKSWHHFDYWGQGTLVTVSS
VL: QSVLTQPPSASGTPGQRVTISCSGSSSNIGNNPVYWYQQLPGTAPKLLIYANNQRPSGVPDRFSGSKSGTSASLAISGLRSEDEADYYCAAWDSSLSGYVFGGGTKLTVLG
Kd [1]: 0.252 nM
koff [1]: 0.000105 s⁻¹
kon [1]: 416000 M⁻¹ s⁻¹
EC50 [2]: 0.0954 nM
Kd [4]: 0.498 nM
koff [4]: 0.000243 s⁻¹
kon [4]: 489000 M⁻¹ s⁻¹

B3: #9104 항체 (antibody, mouse IgG1, V domains shown)
VH: EVQLLESGGGLVQPGGSLRLSCAASGFTFSNYYMSWVRQAPGKGLEWVSGIYYGSGNIYYADSVKGRFTISRDNSKNTLYLQMNSLRAEDTAVYYCARDTPGFDYWGQGTLVTVSS
VL: QSVLTQPPSASGTPGQRVTISCTGSSSNIGNNAVNWYQQLPGTAPKLLIYYDSHRPSGVPDRFSGSKSGTSASLAISGLRSEDEADYYCGAWDYSLSAYVFGGGTKLTVLG
Kd [1]: 0.209 nM
koff [1]: 8.18e-05 s⁻¹
kon [1]: 392000 M⁻¹ s⁻¹
EC50 [2]: 1.95 nM
Kd [4]: 0.638 nM
koff [4]: 0.000198 s⁻¹
kon [4]: 310000 M⁻¹ s⁻¹

B4: #9108 항체 (antibody, mouse IgG1, V domains shown)
VH: EVQLLESGGGLVQPGGSLRLSCAASGFTFSNYAMSWVRQAPGKGLEWVSAIYPGGGSIYYADSVKGRFTISRDNSKNTLYLQMNSLRAEDTAVYYCARDVLGLTPKPFDYWGQGTLVTVSS
VL: QSVLTQPPSASGTPGQRVTLSCTGSSSNIGSNTVYWYQQLPGTAPKLLIYANSQRPSGVPDRFSGSKSGTSASLAISGLRSEDEADYYCGSWDYSLSGYVFGGGTKLTVLG
Kd [1]: 0.119 nM
koff [1]: 2.96e-05 s⁻¹
kon [1]: 249000 M⁻¹ s⁻¹
EC50 [2]: 0.327 nM
Kd [4]: 3.39 nM
koff [4]: 0.00156 s⁻¹
kon [4]: 459000 M⁻¹ s⁻¹

B5: #9113 항체 (antibody, mouse IgG1, V domains shown)
VH: EVQLLESGGGLVQPGGSLRLSCAASGFTFSSYYMSWVRQAPGKGLEWVSSISPGGSSIYYADSVKGRFTISRDNSKNTLYLQMNSLRAEDTAVYYCAKGASLFDYWGQGTLVTVSS
VL: QSVLTQPPSASGTPGQRVTISCSGSSSNIGNNAVSWYQQLPGTAPKLLIYSDNKRPSGVPDRFSGSKSGTSASLAISGLRSEDEADYYCGTWDASLNAYVFGGGTKLTVLG
notes: also called #9113 mIgG1
Kd [5]: < 0.001 nM
koff [5]: < 1e-07 s⁻¹
kon [5]: 1e+06 M⁻¹ s⁻¹
Kd [1]: 0.564 nM
koff [1]: 0.000656 s⁻¹
kon [1]: 1.16e+06 M⁻¹ s⁻¹

B6: #9123 항체 (antibody, mouse IgG1, V domains shown)
VH: EVQLLESGGGLVQPGGSLRLSCAASGFTFSDYAMSWVRQAPGKGLEWVSAISYGGGNIYYADSVKGRFTISRDNSKNTLYLQMNSLRAEDTAVYYCARVGGMCTRRQCYYDYGMDVWGQGTLVTVSS
VL: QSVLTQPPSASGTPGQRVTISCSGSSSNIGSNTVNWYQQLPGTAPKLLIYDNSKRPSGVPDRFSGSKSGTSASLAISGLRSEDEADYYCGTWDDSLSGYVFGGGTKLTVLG
notes: also called #9123 mIgG1
EC50 [2]: 0.758 nM
